The nature of this series: self-splicing fitness, log relative to wild type (ln ratio); higher = more splicing; Tetrahymena group I intron in knt gene, E. coli kanamycin selection, DiMSum; sequences stand for … in CUCUCU…GGAGGGAAAAGUUAUCAGGCAUGCACCUGGUAGCUAGUCUUUAAACCAAUAGAUUGCAUCGGUUUAAAAGGCAAGACCGUCAAAUUGCGGGAAAGGGGUCAACAGCCGUUCAGUACCAAGUCUCAGGGGAAACUUUGAGAUGGCCUUGCAAAGGGUAUGGUAAUAAGCUGACGGACAUGGUCCUAACCACGCAGCCAAGUCCUAAGUCAACAGAUCUUCUGUUGAUAUGGAUGCAGUUCACAGACUAAAUGUCGGUCGGGGAAGAUGUAUUCUUCUCAUAAGAUAUAGUCGGACCUCUCCUUAAUGGGAGCUAGCGGAUGAAGUGAUGCAACACUGGAGCCGCUGGGAACUAAUUUGUAUGCGAAAGUAUAUUGAUUAGUUUUGGAGUACUCGUGGUCG
Summed up: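 Fitness was computed with DiMSum as the error-weighted combination of replicate fold changes, kanamycin versus none, each normalised to wild type. The library randomised all eight intron nucleotides of the P1ex region, with the intron placed in the knt kanamycin-resistance gene on pET-22b(+) in E. coli BL21(DE3). Six replicate transformations were grown overnight at 37°C or 30°C on LB agar with or without 25 μg/mL kanamycin, plus 100 μg/mL carbenicillin, 50 μM IPTG and 0.2% rhamnose. Pooled colonies were amplicon-sequenced on an Illumina HiSeq 2500.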

Results on 42 sequences are retold here after the supplement of paper PMC7877785.

± gives the uncertainty stated by the source.

With CUACAGCAAUAUUACGGUUU, the “self-splicing fitness (ln)” value is, setting by setting: (30 °C) -3.8 ± 0.16; (37 °C) -1.31 ± 0.11. Take CUACAGCAAUAUUACGUAUC: the “self-splicing fitness (ln)” value is -2.78 ± 0.19 (30 °C) and -3.07 ± 0.24 (37 °C). In the case of CUAGAGCAAUAUUACGAAAG, the “self-splicing fitness (ln)” value was -0.33 ± 0.092 (30 °C) and 0.557 ± 0.12 (37 °C). For the sequence CUAGAGCAAUAUUACGAACA, the “self-splicing fitness (ln)” value is -4.05 ± 0.28 (30 °C) and -2.05 ± 0.2 (37 °C). On to CUAGAGCAAUAUUACGAACC, for which the “self-splicing fitness (ln)” value (30 °C) is -1.8 ± 0.47.

On to CUAGAGCAAUAUUACGAAGC, for which the “self-splicing fitness (ln)” value runs as follows: (30 °C) -0.938 ± 0.42; (37 °C) -1.45 ± 0.43. The corresponding values for CUAGAGCAAUAUUACGAAUC are -3.87 ± 0.36 and -2.07 ± 0.21. For the sequence CUAGAGCAAUAUUACGACAU, the “self-splicing fitness (ln)” value by setting is: (30 °C) -3.918 ± 0.03; (37 °C) -2.71 ± 0.043. As for CUAGAGCAAUAUUACGACGC, the “self-splicing fitness (ln)” value (37 °C) is -0.974 ± 0.32. With CUAGAGCAAUAUUACGAGCU, the “self-splicing fitness (ln)” value (30 °C) was -3.73 ± 0.31 and the “self-splicing fitness (ln)” value (37 °C) was -3.37 ± 0.28. On to CUAGAGCAAUAUUACGAGGU, for which the “self-splicing fitness (ln)” value runs as follows: (30 °C) -3.26 ± 0.16; (37 °C) -3.24 ± 0.3. CUAGAGCAAUAUUACGCCGU: the “self-splicing fitness (ln)” value reads like this: (30 °C) -2.86 ± 0.32; (37 °C) -1.99 ± 0.43.

Regarding CUAGAGCAAUAUUACGCGGG, the “self-splicing fitness (ln)” value by setting is: (30 °C) -2.91 ± 0.22; (37 °C) 0.316 ± 0.14. Consider CUAGAGCAAUAUUACGCUCC, for which, under “30 °C”, the “self-splicing fitness (ln)” value was -2.45 ± 0.42. Consider CUAGAGCAAUAUUACGCUCG, for which the “self-splicing fitness (ln)” value (30 °C) was -3.8 ± 0.46 and the “self-splicing fitness (ln)” value (37 °C) is -1.69 ± 0.36. Consider CUAGAGCAAUAUUACGCUUA, for which the “self-splicing fitness (ln)” value runs as follows: (30 °C) -3.65 ± 0.3; (37 °C) -2.77 ± 0.26. Turning to CUAGAGCAAUAUUACGGACA, the “self-splicing fitness (ln)” value is, setting by setting: (30 °C) -2.86 ± 0.16; (37 °C) -1.96 ± 0.29. For CUAGAGCAAUAUUACGGAUC, the “self-splicing fitness (ln)” value is -3.28 ± 0.15 (30 °C) and -3.06 ± 0.4 (37 °C). In the case of CUAGAGCAAUAUUACGGCCA, where the note is “30 °C”, the “self-splicing fitness (ln)” value was -2.59 ± 0.49. On the same count and under the same terms, the value for CUAGAGCAAUAUUACGGCGA was -3.28 ± 0.32. Regarding CUAGAGCAAUAUUACGGGCA, the “self-splicing fitness (ln)” value (37 °C) is -2.34 ± 0.36.

CUAGAGCAAUAUUACGGUGG: the “self-splicing fitness (ln)” value by setting is: (30 °C) -0.455 ± 0.06; (37 °C) -0.563 ± 0.089. Take CUAGAGCAAUAUUACGUACA: the “self-splicing fitness (ln)” value by setting is: (30 °C) -2.59 ± 0.36; (37 °C) -1.64 ± 0.32. Regarding CUAGAGCAAUAUUACGUAUC, for the setting “37 °C”, the “self-splicing fitness (ln)” value was -1.7 ± 0.26. For CUAGAGCAAUAUUACGUAUG, the “self-splicing fitness (ln)” value is -0.333 ± 0.084 (30 °C) and 0.333 ± 0.11 (37 °C). Turning to CUAGAGCAAUAUUACGUCCC, under “37 °C”, the “self-splicing fitness (ln)” value was -1.71 ± 0.47. As for CUAGAGCAAUAUUACGUGCA, the “self-splicing fitness (ln)” value was -3.88 ± 0.21 (30 °C) and -2.18 ± 0.19 (37 °C). Consider CUAGAGCAAUAUUACGUGGA, for which the “self-splicing fitness (ln)” value is, setting by setting: (30 °C) -3.21 ± 0.19; (37 °C) -1.68 ± 0.18. CUAGAGCAAUAUUACGUUCU: the “self-splicing fitness (ln)” value was -3.79 ± 0.21 (30 °C) and -2.21 ± 0.22 (37 °C).

Consider CUAUAGCAAUAUUACGAAUA, for which the “self-splicing fitness (ln)” value (30 °C) was -2.99 ± 0.34 and the “self-splicing fitness (ln)” value (37 °C) was -1.47 ± 0.22.

Turning to CUAUAGCAAUAUUACGACAG, the “self-splicing fitness (ln)” value reads like this: (30 °C) 0.0925 ± 0.097; (37 °C) 0.0869 ± 0.11. In the case of CUAUAGCAAUAUUACGACGA, the “self-splicing fitness (ln)” value runs as follows: (30 °C) -1.82 ± 0.19; (37 °C) -0.725 ± 0.13. CUAUAGCAAUAUUACGACUC: under “37 °C”, the “self-splicing fitness (ln)” value is -1.31 ± 0.39. Regarding CUAUAGCAAUAUUACGAGCG, the “self-splicing fitness (ln)” value was determined as 0.114 ± 0.086 (30 °C) and 0.29 ± 0.11 (37 °C).

On to CUAUAGCAAUAUUACGAGGU, for which the “self-splicing fitness (ln)” value reads like this: (30 °C) -4.07 ± 0.42; (37 °C) -3.28 ± 0.42. As to CUAUAGCAAUAUUACGAUUU, the “self-splicing fitness (ln)” value (37 °C) is -0.748 ± 0.28. Regarding CUAUAGCAAUAUUACGCGAU, the “self-splicing fitness (ln)” value (30 °C) was -2.31 ± 0.12 and the “self-splicing fitness (ln)” value (37 °C) is -1.5 ± 0.12.

As for CUAUAGCAAUAUUACGCUGG, the “self-splicing fitness (ln)” value is, setting by setting: (30 °C) -3.36 ± 0.37; (37 °C) -2.05 ± 0.32. With CUAUAGCAAUAUUACGGAUU, the “self-splicing fitness (ln)” value was -3.43 ± 0.24 (30 °C) and -2.29 ± 0.24 (37 °C). With CUAUAGCAAUAUUACGGCGA, under “37 °C”, the “self-splicing fitness (ln)” value is -0.914 ± 0.47. Regarding CUAUAGCAAUAUUACGGGAA, the “self-splicing fitness (ln)” value is, setting by setting: (30 °C) -2.55 ± 0.32; (37 °C) -2.26 ± 0.31. On to CUAUAGCAAUAUUACGGGCA, for which the “self-splicing fitness (ln)” value is -3.19 ± 0.26 (30 °C) and -1.89 ± 0.18 (37 °C).
